Here are results for three molecules from paper PMC2330087, “Mechanistic Insights into a Novel Exporter-Importer System of Mycobacterium tuberculosis Unravel Its Role in Trafficking of Iron” (PLoS ONE, 2008).

For data set [1], the target named is IrtB-Rv2895c two-component system (rIrtB in LP-49 liposomes with rRv2895c) (Mycobacterium tuberculosis, UniProt P9WL31+P9WQJ7).
Data set [2] concerns the molecule itself. The experiment in a line: SEC + other: circular dichroism.

Sequence of IrtB-Rv2895c two-component system (rIrtB in LP-49 liposomes with rRv2895c) (P9WL31 whole entry, one chain of several): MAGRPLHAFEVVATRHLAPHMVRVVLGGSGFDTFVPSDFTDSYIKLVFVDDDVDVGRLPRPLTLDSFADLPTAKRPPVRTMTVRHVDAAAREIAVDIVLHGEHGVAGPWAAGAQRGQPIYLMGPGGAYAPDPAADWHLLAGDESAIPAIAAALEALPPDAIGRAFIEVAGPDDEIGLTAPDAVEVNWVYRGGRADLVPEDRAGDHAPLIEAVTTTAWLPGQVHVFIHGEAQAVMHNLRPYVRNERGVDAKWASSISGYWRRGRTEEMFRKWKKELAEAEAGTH

As for `Nc1ncnc2c1ncn2[C@@H]1O[C@H](COP(=O)(O)OP(=O)(O)OP(=O)(O)O)[C@@H](O)[C@H]1O` [ATP], the “inorganic phosphate release in proteoliposomes” value in data set [1] was “The increase in ATPase activity of (a) LP-49 liposomes after incubation with Fe-cMyco bound rRv2895c”.

B1: rIrtB (recombinant purified IrtB, Rv1349) (natural protein)
chain: MIRTWIALVPNDHRARLIGFALLAFCSVVARAVGTVLLVPLMAALFGEAPQRAWLWLGWLSAATVAGWVLDAVTARIGIELGFAVLNHTQHDVADRLPVVRLDWFTAENTATARQAIAATGPELVGLVVNLVTPLTSAILLPAVIALALLPISWQLGVAALAGVPLLLGALWASAAFARRADTAADKANTALTERIIEFARTQQALRAARRVEPARSLVGNALASQHTATMRLLGMQIPGQLLFSIASQLALIVLAGTTAALTITGTLTVPEAIALIVVMVRYLEPFTAVSELAPALESTRATLGRIGSVLTAPVMVAGSGTWRDGAVVPRIEFDDVAFGYDGGSGPVLDGVSFCLQPGTTTAIVGPSGCGKSTILALIAGLHQPTRGRVLIDGTDVATLDARAQQAVCSVVFQHPYLFHGTIRDNVFAADPGASDDQFAQAVRLARVDELIARLPDGANTIVGEAGSALSGGERQRVSIARALLKAAPVLLVDEATSALDAENEAAVVDALAADPRSRTRVIVAHRLASIRHADRVLFVDDGRVVEDGSISELLTAGGRFSQFWRQQHEAAEWQILAE
notes: also called p28-IrtB
With B1, the binding result in data set [2] is reported as “binds”.

B2: rIrtA (recombinant purified IrtA, Rv1348) (natural protein)
chain: MARGLQGVMLRSFGARDHTATVIETISIAPHFVRVRMVSPTLFQDAEAEPAAWLRFWFPDPNGSNTEFQRAYTISEADPAAGRFAVDVVLHDPAGPASSWARTVKPGATIAVMSLMGSSRFDVPEEQPAGYLLIGDSASIPGMNGIIETVPNDVPIEMYLEQHDDNDTLIPLAKHPRLRVRWVMRRDEKSLAEAIENRDWSDWYAWATPEAAALKCVRVRLRDEFGFPKSEIHAQAYWNAGRAMGTHRATEPAATEPEVGAAPQPESAVPAPARGSWRAQAASRLLAPLKLPLVLSGVLAALVTLAQLAPFVLLVELSRLLVSGAGAHRLFTVGFAAVGLLGTGALLAAALTLWLHVIDARFARALRLRLLSKLSRLPLGWFTSRGSGSIKKLVTDDTLALHYLVTHAVPDAVAAVVAPVGVLVYLFVVDWRVALVLFGPVLVYLTITSSLTIQSGPRIVQAQRWAEKMNGEAGSYLEGQPVIRVFGAASSSFRRRLDEYIGFLVAWQRPLAGKKTLMDLATRPATFLWLIAATGTLLVATHRMDPVNLLPFMFLGTTFGARLLGIAYGLGGLRTGLLAARHLQVTLDETELAVREHPREPLDGEAPATVVFDHVTFGYRPGVPVIQDVSLTLRPGTVTALVGPSGSGKSTLATLLARFHDVERGAIRVGGQDIRSLAADELYTRVGFVLQEAQLVHGTAAENIALAVPDAPAEQVQVAAREAQIHDRVLRLPDGYDTVLGANSGLSGGERQRLTIARAILGDTPVLILDEATAFADPESEYLVQQALNRLTRDRTVLVIAHRLHTITRADQIVVLDHGRIVERGTHEELLAAGGRYCRLWDTGQGSRVAVAAAQDGTR
notes: also called p23-IrtA
As to B2, the binding result in data set [2] is “binds”.
